From PMC10692919, “Characterization of erythroferrone structural domains relevant to its iron-regulatory function” (The Journal of Biological Chemistry, 2023)

B1: BMP2/6 heterodimer (ligand)
chain 1: QAKHKQRKRLKSSCKRHPLYVDFSDVGWNDWIVAPPGYHAFYCHGECPFPLADHLNSTNHAIVQTLVNSVNSKIPKACCVPTELSAISMLYLDENEKVVLKNYQDMVVEGCGCR
chain 2: SASSRRRQQSRNRSTQSQDVARVSSASDYNSSELKTACRKHELYVSFQDLGWQDWIIAPKGYAANYCDGECSFPLNAHMNATNHAIVQTLVHLMNPEYVPKPCCAPTKLNAISVLYFDDNSNVILKKYRNMVVRACGCH
notes: bone morphogenetic protein 2 chain of the BMP2/6 heterodimer; bone morphogenetic protein 6 chain of the BMP2/6 heterodimer; also called heterodimer of BMP2/6; source: bought: RND Systems #7145-BP-010/CF; copies: 1 + 1
B2: BMP6 homodimer (ligand, UniProt P22004 375-513, looked up)
chain: SASSRRRQQSRNRSTQSQDVARVSSASDYNSSELKTACRKHELYVSFQDLGWQDWIIAPKGYAANYCDGECSFPLNAHMNATNHAIVQTLVHLMNPEYVPKPCCAPTKLNAISVLYFDDNSNVILKKYRNMVVRACGCH
notes: bone morphogenetic protein 6; source: bought: RND Systems 507-BP-020/CF
B3: BMP2 homodimer (ligand, UniProt P12643 283-396, looked up)
chain: QAKHKQRKRLKSSCKRHPLYVDFSDVGWNDWIVAPPGYHAFYCHGECPFPLADHLNSTNHAIVQTLVNSVNSKIPKACCVPTELSAISMLYLDENEKVVLKNYQDMVVEGCGCR
notes: bone morphogenetic protein 2; source: bought: RND Systems #355-BM-010/CF

Key:
BMP2 homodimer [1] = target: B3; test: SPR; scan of overlapping synthetic 18-mer peptides of the ERFE N terminus over BMP2/6, BMP2 or BMP6; 180 s injection, then buffer wash; settings: both partners purified
BMP2/6 heterodimer [2] = target: B1; test: as above; settings: both partners purified
BMP6 homodimer [3] = target: B2; test: as above; settings: both partners purified
BMP2 homodimer [4] = target: B3; test: SPR; Biacore T200, CM5 chip; BMP2, BMP6 or BMP2/6 immobilised by amine coupling (50 μg/ml); purified bacterial untagged ERFE N-terminal variants or synthetic 53-mer segments as analyte; HBS-EP pH 7.4, 50 μl/min; KD = koff/kon at five concentrations; settings: both partners purified
BMP2/6 heterodimer [5] = target: B1; test: as above; settings: both partners purified
BMP6 homodimer [6] = target: B2; test: as above; settings: both partners purified
BMP2 homodimer [7] = target: B3; test: as above; settings: both partners purified; remark: listed apart in the source
BMP2/6 heterodimer [8] = target: B1; test: as above; settings: both partners purified; remark: listed apart in the source
BMP6 homodimer [9] = target: B2; test: as above; settings: both partners purified; remark: listed apart in the source
[10] = target: T1, Full-length ERFE (erythroferrone), 43-354, FLAG-tagged (human, UniProt Q4G0M1 43-354); test: SPR; Biacore T200, CM5 chip; BMP2, BMP6 or BMP2/6 immobilised by amine coupling (50 μg/ml); FLAG-ERFE variants made in HEK293T as analyte; HBS-EP (0.15 M NaCl, 3 mM EDTA, 0.005% P20, 0.01 M Hepes pH 7.4), 50 μl/min; KD = koff/kon at five concentrations; the paper calls the constants avidities where binding is presumed multivalent; settings: one partner purified
T1 construct: human erythroferrone (ERFE), mature molecule, residues 43-354; pcDNA3.1(+) backbone; Predominantly a hexamer at low concentration on native PAGE, a smear of 117-460 kDa at high concentration; also called Full length, 43-354; WT, 43-354; source: HEK293T, transiently transfected, in supernatant; not shown: FLAG, N-terminal, kept

[11] = target: T1, Full-length ERFE (erythroferrone), …; test: as above; settings: one partner purified; remark: listed apart in the source

Row | Binder | binding result (BMP2 homodimer [1]) | binding result (BMP2/6 heterodimer [2]) | binding result (BMP6 homodimer [3]) | koff [10] | Kd [11] | also measured
1 | AHSVDPRDAWMLFVRQSD (peptide, UniProt Q4G0M1 73-90, looked up, human erythroferrone (ERFE), residues 73-90; source: synthetic peptide (GenScript, ≥70% purity)) [ERFE 18-mer peptide 73-90] | binds | binds | binds |  |  | 
2 | KRSRGKAKKLKFGLPGPP (peptide, UniProt Q4G0M1 97-114, looked up, also called cationic 18-mer peptide; source: synthetic peptide (GenScript, ≥70% purity)) [ERFE 18-mer peptide 97-114] | binds | binds | binds |  |  | 
3 | ERFE N terminus ΔCollagen, 43-148 del109-125 (bacterial) (domain or fragment, human, UniProt Q4G0M1 43-148, looked up, also called bacterial ΔCollagen N terminus; source: E. coli Rosetta2(DE3)pLysS, purified (Ni-NTA, TEV cleavage, reverse IMAC); not shown: His6, N-terminal, cleaved; MBP, N-terminal, cleaved) EPPPGNELPRGPGESRAGPAARPPEPTAERAHSVDPRDAWMLFVRQSDKGVNGKKRSRGKAKKLKFIIPPEALLKEFQLLLKGAVRQRE |  |  |  |  |  | koff (BMP2 homodimer [4]): 0.0056 s⁻¹; log kd (BMP2 homodimer [4]): -2.29; koff (BMP2/6 heterodimer [5]): 0.0052 s⁻¹; log kd (BMP2/6 heterodimer [5]): -2.29; koff (BMP6 homodimer [6]): 0.0085 s⁻¹; log kd (BMP6 homodimer [6]): -2.17; Kd (BMP2 homodimer [7]): 3130 pM; pKd (-log Kd) (BMP2 homodimer [7]): 8.7; Kd (BMP2/6 heterodimer [8]): 50100 pM; pKd (-log Kd) (BMP2/6 heterodimer [8]): 7.3; Kd (BMP6 homodimer [9]): 756 pM; pKd (-log Kd) (BMP6 homodimer [9]): 9.2
4 | GPPGPIIPPEALLKEFQL (peptide, UniProt Q4G0M1 121-138, looked up, human erythroferrone (ERFE), residues 121-138; source: synthetic peptide (GenScript, ≥70% purity)) [ERFE 18-mer peptide 121-138] | binds | binds | binds |  |  | 
5 | LKEFQLLLKGAVRQRERA (peptide, UniProt Q4G0M1 133-150, looked up, human erythroferrone (ERFE), residues 133-150; source: synthetic peptide (GenScript, ≥70% purity)) [ERFE 18-mer peptide 133-150] | binds | binds | binds |  |  | 
6 | B1 |  |  |  | 0.00022 s⁻¹ | 277 pM | 
7 | B2 |  |  |  | 0.00022 s⁻¹ | 817 pM | 
8 | B3 |  |  |  | 9e-05 s⁻¹ | 445 pM | 
